Molecular target: human CD3 (human) (UniProt P07766)
Sequence (P07766 23-207 limits assumed, chain 1 of 2): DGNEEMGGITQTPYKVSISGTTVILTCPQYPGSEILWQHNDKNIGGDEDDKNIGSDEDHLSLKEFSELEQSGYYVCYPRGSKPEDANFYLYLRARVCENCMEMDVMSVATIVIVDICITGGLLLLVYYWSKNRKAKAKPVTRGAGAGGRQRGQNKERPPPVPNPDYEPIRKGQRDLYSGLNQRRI
Sequence (chain, as listed by the source limits assumed, chain 2 of 2): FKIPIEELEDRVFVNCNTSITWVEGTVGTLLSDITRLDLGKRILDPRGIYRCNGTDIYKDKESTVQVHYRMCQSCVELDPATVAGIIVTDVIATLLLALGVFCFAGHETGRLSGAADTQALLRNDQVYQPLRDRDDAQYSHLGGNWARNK

Kd: 0.03 µM
Substance: TNB-384B (bispecific antibody)
